The text below walks through data of patent publication US20240317847A1 (Bayer, published 2024).

In one experiment the target is T1, cynomolgus IL-11 (cynomolgus, UniProt P20808 22-199).
T1 construct: Invigate recombinant protein; also called cIL11; Macaca IL-11
T1 sequence: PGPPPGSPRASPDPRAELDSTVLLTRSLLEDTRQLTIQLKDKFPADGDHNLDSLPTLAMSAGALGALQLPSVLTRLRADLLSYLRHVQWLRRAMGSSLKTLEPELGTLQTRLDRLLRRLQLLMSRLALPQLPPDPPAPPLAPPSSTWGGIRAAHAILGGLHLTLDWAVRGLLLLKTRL
In words: SPR (Biacore), 37 C, antibody captured via anti-Fc, IL-11 as analyte. How it is done:
(§1) To assess the binding kinetics and affinity of anti-IL-11 bispecific antibodies as well as their species cross-reactivity profile, binding assays were conducted using surface plasmon resonance (SPR). […] Antibodies were captured either via anti-human Fc IgGs (“Human antibody capture kit”, Order No. BR100839, Cytiva) or via anti-mouse Fc IgGs (“Mouse antibody capture kit, Order No. BR100383, Cytiva) covalently amine coupled to a Series S CM5 sensor chip (Cytiva) depending on the isotype. The amine coupling was carried out according to the manufacturer's instructions using 1-ethyl-3-(3-dimethylaminopropyl) carbodiimide hydrochloride (EDC), N-hydroxysuccinimide (NHS) and ethanolamine HCl, pH 8.5 (“Amine Coupling Kit” BR-1000-50, Cytiva.). Human, mouse, cynomolgus or rat IL-11 was used as analyte at several dilutions within the concentration range from 0.05-200 nM. For binding assays with only one concentration 200 nM IL-11 was used. The sensor surface was regenerated with glycine pH 1.7 after each antigen injection. Obtained sensorgrams were double referenced (subtraction of reference flow cell signal and buffer injection) and were fitted to a 1:1 Langmuir binding model to derive kinetic data using the Biacore T200 Evaluation software or the Biacore Insight software.
(§2) If no value is reported, there was either no binding or very low binding and multiphasic binding behavior.

For the next experiment, the target named is T2, human IL-11 (human, UniProt P20809 22-199).
T2 construct: Invigate recombinant protein; biotinylated when immobilized in the Di-complex ELISA; also called hIL11; hIL-11
T2 sequence: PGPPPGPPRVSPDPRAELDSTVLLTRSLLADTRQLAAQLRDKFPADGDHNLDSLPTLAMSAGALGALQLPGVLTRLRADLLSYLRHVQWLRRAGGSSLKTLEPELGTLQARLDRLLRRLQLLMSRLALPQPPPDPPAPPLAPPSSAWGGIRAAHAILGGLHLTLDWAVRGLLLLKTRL
The experiment is described as above. How it is done:
as §1, §2

The next experiment addresses T3, rat IL-11 (rat, UniProt Q99MF5 22-199).
T3 construct: Invigate recombinant protein; also called rIL11
T3 sequence: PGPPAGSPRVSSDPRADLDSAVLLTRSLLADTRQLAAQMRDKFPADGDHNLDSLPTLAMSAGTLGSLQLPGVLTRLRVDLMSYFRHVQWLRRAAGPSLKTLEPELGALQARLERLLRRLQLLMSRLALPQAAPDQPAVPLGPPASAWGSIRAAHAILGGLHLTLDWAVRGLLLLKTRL
The description is as above. How it is done:
as §1, §2

Another experiment addresses T4, human IL2Ra (human, UniProt P01589 22-240, limits assumed).
T4 construct: coated on the ELISA plate; also called IL-2 receptor alpha
T4 sequence (looked up): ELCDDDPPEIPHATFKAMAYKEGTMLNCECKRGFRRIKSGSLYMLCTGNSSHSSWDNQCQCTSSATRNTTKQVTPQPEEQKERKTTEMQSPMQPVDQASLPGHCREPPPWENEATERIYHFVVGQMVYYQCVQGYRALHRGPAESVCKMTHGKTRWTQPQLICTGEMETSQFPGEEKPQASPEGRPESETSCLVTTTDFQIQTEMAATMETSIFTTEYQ
In words: ELISA on coated IL2Ra, signal ratio to isotype control TPP-10159 at 3.3E-7 M antibody. The method, then: IL2RA (Peprotech, Germany, #200-02RC) was coated at 1 or 0 μg/ml (buffer only control) in 30 μl coating buffer (Candor, #113500) per well on a 384 well microtiter plate (Maxisorb, Nunc, #460518) over night at 4-8° C. After two washes with 50 μl/well washing buffer (PBS+0.05% Tween, pH 7.4), the plates were incubated for two hours at room temperature with 50 μl/well SmartBlock (Candor, #113500). After blocking, the plates were washed three times with washing buffer. Then, a dilution series of the respective antibody (1E-7 [M] down to 2E-13 [M]) in PBS+0.05% Tween, 10% SmartBlock were added in 30 μl to the microtiter plate and incubated for 90 min at room temperature. After three additional washes, 30 μl anti mouse IgG HRP-conjugated antibody (Biotechne, HAF007), diluted 1:1000 in PBS+0.05% Tween (pH 7.4), were added per well and incubated for one hour. After three additional washes, a mixture of Amplex red (Invitrogen, #12222, 10 mM stock solution in DMSO) 1:1000 diluted in PBS and H2O2 (30%, Merck, #107209)) diluted 1:10000 in PBS were added as substrate with 30 μl per well and incubated for 20 min in the dark. Relative fluorescence was measured with a microtiter plate reader at 535/590 nm.
IgG converted antibodies TPP-were tested for binding to IL2Ra as described in Example 20. The ratios of the signals obtained at an antibody concentration of 3.3E-7 [M] for IgG converted antibody versus the isotype control TPP-10159 were calculated and are shown in Table E22.
Background: An ELISA detects its analyte on a solid surface through an enzyme-linked reagent.

In experiment [1] the target is T5, murine IL-11 (Invigate, e.g., lot #C210819-09) (mouse, UniProt P47873 22-199).
T5 sequence: T3 sequence with N50S, F84L, A94G, A137V, V138I
The experiment is described as follows: cell-based or functional assay.

Experiment [2] deals with T6, human IL-11 (Invigate, e.g., lot #C121021-19) (human, UniProt P20809 22-199).
T6 sequence: T2 sequence
In words: cell-based or functional assay.

Substitutions are numbered along the chain they refer to.

B1: TPP-29603 (bispecific antibody, IgG1)
chain 1: QVQLVESGGGVVQPGRSLRLSCAASGFTFSHYDMHWVRQAPGKGLEWVAVISYHGSVKFYADSVKGRFTISRDNSKNTLYLQMNSLRAEDTAVYYCARTPGFHFDYWGQGTLVTVSSGGGGSGGGGSGGGGSQSVLTQPPSASGTPGQRVTISCSGSSSNIGSNYVSWYQQLPGTAPKLLIYYDDLRPSGVPDRFSGSKSGTSASLAISGLRSEDEADYYCSAWDDSLSGVVFGGGTKLTVLGGGGSGGGGSGGGGSGVECPPCPAPPVAGPSVFIFPPKPKDVLTITLTPKVTCVVVDISKDDPEVQFSWFVDDVEVHTAQTQPREEQFNSTFRSVSELPIMHQDWLNGKEFKCRVNSAAFPAPIEKTISKTKGRPKAPQVYTIPPCKEQMAKDKVSLWCMITDFFPEDITVEWQWNGQPAENYKNTQPIMDTDGSYFVYSKLNVQKSNWEAGNTFTCSVLHEGLHNHHTEKSLSHSPGK
chain 2: EVQLLESGGGLVQPGGSLRLSCAASGFTFSSYGMHWVRQAPGKGLEWVAVISYDGSYKYYADSVKGRFTISRDNSKNTLYLQMNSLRAEDTAVYYCAAGVPDYWGQGTLVTVSSGGGGSGGGGSGGGGSQSVLTQPPSASGTPGQRVTISCSGSSSNIGSDYDVHWYQQLPGTAPKLLIYSNEERPSGVPDRFSGSKSGTSASLAISGLRSEDEADYYCSAWDSSLSGPVFGGGTKLTVLGGGGSGGGGSGGGGSGVECPPCPAPPVAGPSVFIFPPKPKDVLTITLTPKVTCVVVDISKDDPEVQFSWFVDDVEVHTAQTQPREEQFNSTFRSVSELPIMHQDWLNGKEFKCRVNSAAFPAPIEKTISKTKGRPKAPQVCTIPPPKEQMAKDKVSLSCAITDFFPEDITVEWQWNGQPAENYKNTQPIMDTDGSYFVVSKLNVQKSNWEAGNTFTCSVLHEGLHNHHTEKSLSHSPGK
notes: scFv-kih-mIgG1; bispecific comprising CDRs of TPP-29528 and TPP-29519
In general, Kd refers to a measure of binding affinity in units of concentration. Read a low Kd as higher affinity. On to B1, for which the figures for the Kd in the experiment with cynomolgus IL-11, in the experiment with human IL-11 and in the experiment with rat IL-11 were 0.0022 nM, 0.0019 nM and 0.0034 nM, respectively.

B2: TPP-18068 (antibody, mouse IgG1)
heavy: EVQLLESGGGLVQPGGSLRLSCAASGFTFSSYGMHWVRQAPGKGLEWVSVISYDGSYKYYADSVKGRFTISRDNSKNTLYLQMNSLRAEDTAVYYCAAGVPDYWGQGTLVTVSSAKTTPPSVYPLAPGSAAQTNSMVTLGCLVKGYFPEPVTVTWNSGSLSSGVHTFPAVLQSDLYTLSSSVTVPSSTWPSETVTCNVAHPASSTKVDKKIVPRDCGCKPCICTVPEVSSVFIFPPKPKDVLTITLTPKVTCVVVDISKDDPEVQFSWFVDDVEVHTAQTQPREEQFNSTFRSVSELPIMHQDWLNGKEFKCRVNSAAFPAPIEKTISKTKGRPKAPQVYTIPPPKEQMAKDKVSLTCMITDFFPEDITVEWQWNGQPAENYKNTQPIMDTDGSYFVYSKLNVQKSNWEAGNTFTCSVLHEGLHNHHTEKSLSHSPGK
light: QSVLTQPPSASGTPGQRVTISCTGSSSNIGAGYDVHWYQQLPGTAPKLLIYSNNERPSGVPDRFSGSKSGTSASLAISGLRSEDEADYYCAAWDDSLNGPVFGGGTKLTVLGQPKSSPSVTLFPPSSEELETNKATLVCTITDFYPGVVTVDWKVDGTPVTQGMETTQPSKQSNNKYMASSYLTLTARAWERHSSYSCQVTHEGHTVEKSLSRADCS
notes: mIgG1, Lambda
Take B2: the Kd with cynomolgus IL-11 is 5 nM; with rat IL-11 it was 0.58 nM. In the experiment with human IL2Ra, the “Antibody/Isotype Control Ratio of IL-2Ra Binding Signals” value came out at 377 ratio.

B3: TPP-29697 (bispecific antibody, IgG1)
chain 1: QVQLVESGGGVVQPGRSLRLSCAASGFTFSHYDMHWVRQAPGKGLEWVAVISYHGSVKFYADSVKGRFTISRDNSKNTLYLQMNSLRAEDTAVYYCARTPGFHFDYWGQGTLVTVSSGGGGSGGGGSGGGGSQSVLTQPPSASGTPGQRVTISCSGSSSNIGSNYVSWYQQLPGTAPKLLIYYDDLRPSGVPDRFSGSKSGTSASLAISGLRSEDEADYYCSAWDDSLSGVVFGGGTKLTVLGGGGSGGGGSGGGGSGVECPPCPAPPVAGPSVFLFPPKPKDTLMISRTPEVTCVVVGVSHEDPEVKFNWYVDGVEVHNAKTKPREEQYNSTYRVVSVLTVLHQDWLNGKEYKCKVSNKQLPSPIEKTISKAKGQPREPQVYTLPPCRDELTKNQVSLWCLVKGFYPSDIAVEWESNGQPENNYKTTPPVLDSDGSFFLYSKLTVDKSRWQQGNVFSCSVMHEALHNHYTQKSLSLSPGK
chain 2: EVQLLESGGGLVQPGGSLRLSCAASGFTFSSYGMHWVRQAPGKGLEWVAVISYDGSYKYYADSVKGRFTISRDNSKNTLYLQMNSLRAEDTAVYYCAAGVPDYWGQGTLVTVSSGGGGSGGGGSGGGGSQSVLTQPPSASGTPGQRVTISCSGSSSNIGSDYDVHWYQQLPGTAPKLLIYSNEERPSGVPDRFSGSKSGTSASLAISGLRSEDEADYYCSAWDSSLSGPVFGGGTKLTVLGGGGSGGGGSGGGGSGVECPPCPAPPVAGPSVFLFPPKPKDTLMISRTPEVTCVVVGVSHEDPEVKFNWYVDGVEVHNAKTKPREEQYNSTYRVVSVLTVLHQDWLNGKEYKCKVSNKQLPSPIEKTISKAKGQPREPQVCTLPPSRDELTKNQVSLSCAVKGFYPSDIAVEWESNGQPENNYKTTPPVLDSDGSFFLVSKLTVDKSRWQQGNVFSCSVMHEALHNHYTQKSLSLSPGK
notes: scFv-kih-hIgG1 with Fc-silencing mutations; bispecific comprising CDRs of TPP-29528 and TPP-29519
Take B3: the Kd with cynomolgus IL-11, in the experiment with human IL-11 and in the experiment with rat IL-11 was below 0.001 nM throughout.

B4: TPP-18087 (antibody, mouse IgG1, V domains shown)
VH: EVQLLESGGGLVQPGGSLRLSCAASGFTFSHYDMNWLRQAPGKGLEWVGVISYDGSNKFYADFVKGRFTISRDNSKNTLYLQMNSLRAEDTAVYYCARTPGSHFDYWGQGTLVTVSS
VL: QSVLTQPPSASGTPGQRVTISCSGSSSNIGNNAVNWYQQLPGTAPKLLIYYDDLLPSGVPDRFSGSKSGTSASLAISGLRSEDEADYYCSAWDDSLNGVVFGGGTKLTVLG
notes: mIgG1, Lambda
For the molecule B4, in experiment [1], the “Efficacy (%), Stat3 reporter gene assay, mouse Il11ra, 3.13 nM mIL-11” value turned out to be 49% and the “IC50 [M], Stat3 reporter gene assay, HEK 293F transfected with mouse Il11ra, 3.13 nM mIL-11” value came out at 3.31e-07 M. In addition, in experiment [2], the “Efficacy (%), Stat3 reporter gene assay, human IL11RA, 0.78 nM hIL-11” value amounted to 51.5% and the “IC50 [M], Stat3 reporter gene assay, HEK 293F transfected with human IL11RA, 0.78 nM hIL-11” value is 1.07e-07 M.

B5: TPP-18087 (antibody, mouse IgG1, V domains shown)
VH: B4 VH
VL: B4 VL
notes: mIgG1, Lambda
Take B5: the “Antibody/Isotype Control Ratio of IL-2Ra Binding Signals” value with human IL2Ra amounted to 0.6 ratio.

B6: TPP-19528 (antibody, mouse IgG1, V domains shown)
VH: EVQLLESGGGLVQPGGSLRLSCAASGFTFSIYAMSWVRQAPGKGLEWVSSISDTGDRTYYADSVKGRFTISRDNSKNTLYLQMNSLRAEDTAVYYCARSNWGSLDYWGQGTLVTVSS
VL: B4 VL with N31S, A33Y, N35Y, S90A, N97S, V99R
notes: mIgG1, Lambda
B6: in experiment [1], the “Efficacy (%), Stat3 reporter gene assay, mouse Il11ra, 3.13 nM mIL-11” value is 80.7% and the “IC50 [M], Stat3 reporter gene assay, HEK 293F transfected with mouse Il11ra, 3.13 nM mIL-11” value stood at 9.6e-09 M. In experiment [2], the “Efficacy (%), Stat3 reporter gene assay, human IL11RA, 0.78 nM hIL-11” value came out at 65.6% and the “IC50 [M], Stat3 reporter gene assay, HEK 293F transfected with human IL11RA, 0.78 nM hIL-11” value amounted to 1.5e-08 M.
